Like-named read-outs stand apart in the source and are kept apart here. Values belong to the binder of their own block, whether it stands above or below them.
Key:
[1] = biological target: T1, human BCMA peptide 30SNTPPLTCQR39 (human); experiment: CLIPS peptide array ELISA
T1 construct: Peptide of the CLIPS array; could be recognized in a linear form
T1 peptide: SNTPPLTCQR
Method: (§1) Epitopes recognized, e.g., specifically bound to, by exemplary anti-BCMA scFv clones (BCMA-1, BCMA-5, BCMA-9, BCMA-23, BCMA-25, BCMA-26, BCMA-52 and BCMA-55 anti-BCMA scFvs), were assessed using full discontinuous epitope mapping by Chemical Linkage of Peptides onto Scaffolds (CLIPS; Pepscan Presto BV, Lelystad, The Netherlands; see, e.g., Timmerman et al., (2007) J. Mol. Recognit. 20: 283-329). Mapping was carried out using anti-BCMA scFv clones, such as those fused with mouse Fc (scFv-mFc).
(§2) Linear and conformational peptide libraries of amino acid residues 1-54 of human BCMA (set forth as amino acid residues 1-54 of SEQ ID NO:164) were generated based on a combinatorial matrix design. Linear peptides and structural mimetics including single loop, α-helix, β-turn, combinatorial and linear disulfide bridge mimics, and discontinuous epitope mimics were used, along with positive and negative control peptides, on an amino-functionalized solid support.
(§3) Affinities for binding to the peptides in the epitope library were determined using ELISA. The peptide arrays were incubated with a solution containing the scFv overnight at 4° C. Affinity information was used in iterative screens to define the sequence and conformation of epitopes. Heat maps of affinity information for two or more loops were generated.

[2] = biological target: T2, human BCMA amino acid residues 1-54 (linear and conformational CLIPS peptide libraries) (human); experiment: CLIPS peptide array ELISA
T2 construct: Not one polypeptide in the assay: arrays of linear peptides and structural mimetics that cover residues 1-54
T2 chain: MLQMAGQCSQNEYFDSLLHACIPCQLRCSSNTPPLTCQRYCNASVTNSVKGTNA
Method: as §1, §2, §3

[3] = biological target: T3, recombinant human BCMA-hFc (soluble human BCMA fused at its C-terminus to an Fc region of IgG) (human, UniProt Q02223 1-54, limits assumed, biotinylated in the KinExA experiment of p-1044 (site not stated)); experiment: cell-based or functional assay
T3 sequence (looked up): T2 chain

[4] = biological target: T4, cynoBCMA coated on 96-well flat-bottom plates (cynomolgus monkey); experiment: cell-based or functional assay
T4 sequence (chain, as listed by the source): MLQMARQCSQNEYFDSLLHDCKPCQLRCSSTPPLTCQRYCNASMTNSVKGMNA

[5] = biological target: T3, recombinant human BCMA-hFc (soluble …); experiment: KinExA kinetic exclusion analysis; serially diluted CAR-expressing Jurkat cells equilibrated with 20 nM or 1 nM biotinylated rhBCMA hFc
Method: In a further experiment, Jurkat cells were transduced with a polynucleotide encoding a CAR with a BCMA-55-derived scFv binding domain and were cultured to a density of ˜2×10⁶. The cells were harvested and spun at 1500 g for 15 minutes at 4° C. The cell pellet was washed and cells were resuspended and serially diluted in 20 nM or 1 nM biotinylated rhBCMA hFc (also referred to in this assay as the constant binding partner (CBP). After equilibration, cells were spun down and supernatants were harvested for KinExa kinetic exclusion analysis. Briefly, supernatants from equilibrated BCMA-55-LS CAR O/SSE-expressing Jurkat cells containing rhBCMA hFc were flowed over a streptavidin bead flow cell to capture free biotinylated rhBCMA hFc. The rhBCMA was then detected using a secondary anti-hBCMA antibody that was fluorescently labelled. The […] of the detected rhBCMA hFc was recorded for each sample, and plotted against the number of cells in each dilution (Darling (2004) Assay Drug. Dev., 2:647-657).

[6] = biological target: T4, cynoBCMA coated on 96-well flat-bottom …; experiment: cell-based or functional assay; remark: listed apart in the source
[7] = biological target: T3, recombinant human BCMA-hFc (soluble …); experiment: kinetics exclusion assay; CAR expressed in a Jurkat T cell line, soluble rhBCMA hFc; CAR on Jurkat cells, kinetics exclusion assay
[8] = biological target: T3, recombinant human BCMA-hFc (soluble …); experiment: Biacore-based assay; scFv-Fc and recombinant human BCMA fusion protein; scFv-Fc fusion, Biacore-based assay

B1: BCMA-23 anti-BCMA scFv (scFv)
scFv: EVQLVESGGGLVKPGGSLRLSCAASGFTFSDYYMSWIRQAPGKGLEWVSYISSSGSTIYYADSVKGRFTISRDNAKNSLYLQMNSLRAEDTAVYYCAKVDGDYTEDYWGQGTLVTVSSGGGGSGGGGSGGGGSQSALTQPASVSGSPGQSITISCTGSSSDVGKYNLVSWYQQPPGKAPKLIIYDVNKRPSGVSNRFSGSKSGNTATLTISGLQGDDEADYYCSSYGGSRSYVFGTGTKVTVL
- binding result [1]: binds

B2: BCMA-26 anti-BCMA scFv (scFv)
scFv: EVQLVESGGGLVKPGGSLRLSCAASGFTFSDYYMSWIRQAPGKGLEWVSYISSSGSTIYYADSVKGRFTISRDNAKNSLYLQMNSLRAEDTAVYYCAKVDGPPSFDIWGQGTMVTVSSGGGGSGGGGSGGGGSSYVLTQPPSVSVAPGQTARITCGANNIGSKSVHWYQQKPGQAPMLVVYDDDDRPSGIPERFSGSNSGNTATLTISGVEAGDEADYFCHLWDRSRDHYVFGTGTKLTVL
- binding result [2]: binds

B4: BCMA-55-LS-O/SSE CAR (other)
chain: QSALTQPASVSASPGQSIAISCTGTSSDVGWYQQHPGKAPKLMIYEDSKRPSGVSNRFSGSKSGNTASLTISGLQAEDEADYYCSSNTRSSTLVFGGGTKLTVLGSRGGGGSGGGGSGGGGSLEMAEVQLVQSGAEMKKPGASLKLSCKASGYTFIDYYVYWMRQAPGQGLESMGWINPNSGGTNYAQKFQGRVTMTRDTSISTAYMELSRLRSDDTAMYYCARSQRDGYMDYWGQGTLVTVSSESKYGPPCPPCPAPPVAGPSVFLFPPKPKDTLMISRTPEVTCVVVDVSQEDPEVQFNWYVDGVEVHNAKTKPREEQFQSTYRVVSVLTVLHQDWLNGKEYKCKVSNKGLPSSIEKTISKAKGQPREPQVYTLPPSQEEMTKNQVSLTCLVKGFYPSDIAVEWESNGQPENNYKTTPPVLDSDGSFFLYSRLTVDKSRWQEGNVFSCSVMHEALHNHYTQKSLSLSLGKMFWVLVVVGGVLACYSLLVTVAFIIFWVKRGRKKLLYIFKQPFMRPVQTTQEEDGCSCRFPEEEEGGCELRVKFSRSADAPAYQQGQNQLYNELNLGRREEYDVLDKRRGRDPEMGGKPRRKNPQEGLYNELQKDKMAEAYSEIGMKGERRRGKGHDGLYQGLSTATKDTYDALHMQALPPR
notes: Chimeric antigen receptor on the surface of Jurkat cells, Jurkat Nur77 reporter cells or primary T cells; also called BCMA-55-LS CAR; BCMA-55-L CAR
- EC50 (read off the curve) [3]: ~0.2 µg/mL
- EC50 (read off the curve) [4]: ~0.9 µg/mL
- Kd [5]: ~1.46 nM
- EC50 (read off the curve) [6]: ~1 µg/mL
- Kd [7]: ~1 nM

B6: BCMA-55 scFv-Fc fusion protein (Fc fusion)
chain: QSALTQPASVSASPGQSIAISCTGTSSDVGWYQQHPGKAPKLMIYEDSKRPSGVSNRFSGSKSGNTASLTISGLQAEDEADYYCSSNTRSSTLVFGGGTKLTVLGSRGGGGSGGGGSGGGGSLEMAEVQLVQSGAEMKKPGASLKLSCKASGYTFIDYYVYWMRQAPGQGLESMGWINPNSGGTNYAQKFQGRVTMTRDTSISTAYMELSRLRSDDTAMYYCARSQRDGYMDYWGQGTLVTVSS
notes: Fc fusion protein containing the scFv portion of the BCMA-55 CAR; also called BCMA-55-Fc; not shown: Fc region
- Kd [8]: ~10 nM

The remaining lines, values ahead:

- binding result [1]: binds
B3: BCMA-25 anti-BCMA scFv (scFv)
scFv: EVQLVQSGGGLVQPGRSLRLSCTASGFTFGDYAMSWFRQAPGKGLEWVGFIRSKAYGGTTEYAASVKGRFTISRDDSKSIAYLQMNSLKTEDTAVYYCAAWSAPTDYWGQGTLVTVSSGGGGSGGGGSGGGGSDIQMTQSPAFLSASVGDRVTVTCRASQGISNYLAWYQQKPGNAPRLLIYSASTLQSGVPSRFRGTGYGTEFSLTIDSLQPEDFATYYCQQSYTSRQTFGPGTRLDIK

- binding result [2]: binds
B5: BCMA-55-scFv-mFc (Fc fusion, not shown: a dimerising Fc or GST)
chain: B6 chain

- binding result [2]: binds
B7: BCMA-52-scFv-mFc (Fc fusion, not shown: a dimerising Fc or GST)
chain: SYELTQPPSASGTPGQRVTMSCSGTSSNIGSHSVNWYQQLPGTAPKLLIYTNNQRPSGVPDRFSGSKSGTSASLAISGLQSEDEADYYCAAWDGSLNGLVFGGGTKLTVLGSRGGGGSGGGGSGGGGSLEMAEVQLVQSGAEVKKPGESLKISCKGSGYSFTSYWIGWVRQMPGKGLEWMGIIYPGDSDTRYSPSFQGHVTISADKSISTAYLQWSSLKASDTAMYYCARYSGSFDNWGQGTLVTVSS

— patent US20210393690A1 (JUNO THERAPEUTICS, published 2021)
